Source: publication PMC5159797

Columns and labels:
MBP-Kif2b-CT = assay: GST pull-down, anti-MBP blot quantified; details: purified MBP-Kif2b deletions; n = 3; parent: 1.0; read off a plot
MBP-Kif2b-NT = assay: GST pull-down, anti-MBP blot quantified; details: purified MBP-Kif2b deletions; parent: 1.0; read off a plot

Substance	ratio to parent (MBP-Kif2b-CT)	ratio to parent (MBP-Kif2b-NT)
GST-SKAP (from UniProt Q9Y448) S232A; S237A; T294A	0.42	1.1
GST-SKAP (from UniProt Q9Y448) S232E; S237E; T294E	0.87	15
